Biological target: 纯化的重组蛋白MDR-1 (原核表达, PET28a-MDR-1, 大肠杆菌BL21) (human) (UniProt P08183)
Experiment: direct ELISA, purified antibody diluted 1:200 to 1:12800 on plate coated with purified MDR-1 protein (10 μg/ml), goat anti-mouse IgG-HRP, OD450

Chain of UniProt P08183 (P08183 whole entry): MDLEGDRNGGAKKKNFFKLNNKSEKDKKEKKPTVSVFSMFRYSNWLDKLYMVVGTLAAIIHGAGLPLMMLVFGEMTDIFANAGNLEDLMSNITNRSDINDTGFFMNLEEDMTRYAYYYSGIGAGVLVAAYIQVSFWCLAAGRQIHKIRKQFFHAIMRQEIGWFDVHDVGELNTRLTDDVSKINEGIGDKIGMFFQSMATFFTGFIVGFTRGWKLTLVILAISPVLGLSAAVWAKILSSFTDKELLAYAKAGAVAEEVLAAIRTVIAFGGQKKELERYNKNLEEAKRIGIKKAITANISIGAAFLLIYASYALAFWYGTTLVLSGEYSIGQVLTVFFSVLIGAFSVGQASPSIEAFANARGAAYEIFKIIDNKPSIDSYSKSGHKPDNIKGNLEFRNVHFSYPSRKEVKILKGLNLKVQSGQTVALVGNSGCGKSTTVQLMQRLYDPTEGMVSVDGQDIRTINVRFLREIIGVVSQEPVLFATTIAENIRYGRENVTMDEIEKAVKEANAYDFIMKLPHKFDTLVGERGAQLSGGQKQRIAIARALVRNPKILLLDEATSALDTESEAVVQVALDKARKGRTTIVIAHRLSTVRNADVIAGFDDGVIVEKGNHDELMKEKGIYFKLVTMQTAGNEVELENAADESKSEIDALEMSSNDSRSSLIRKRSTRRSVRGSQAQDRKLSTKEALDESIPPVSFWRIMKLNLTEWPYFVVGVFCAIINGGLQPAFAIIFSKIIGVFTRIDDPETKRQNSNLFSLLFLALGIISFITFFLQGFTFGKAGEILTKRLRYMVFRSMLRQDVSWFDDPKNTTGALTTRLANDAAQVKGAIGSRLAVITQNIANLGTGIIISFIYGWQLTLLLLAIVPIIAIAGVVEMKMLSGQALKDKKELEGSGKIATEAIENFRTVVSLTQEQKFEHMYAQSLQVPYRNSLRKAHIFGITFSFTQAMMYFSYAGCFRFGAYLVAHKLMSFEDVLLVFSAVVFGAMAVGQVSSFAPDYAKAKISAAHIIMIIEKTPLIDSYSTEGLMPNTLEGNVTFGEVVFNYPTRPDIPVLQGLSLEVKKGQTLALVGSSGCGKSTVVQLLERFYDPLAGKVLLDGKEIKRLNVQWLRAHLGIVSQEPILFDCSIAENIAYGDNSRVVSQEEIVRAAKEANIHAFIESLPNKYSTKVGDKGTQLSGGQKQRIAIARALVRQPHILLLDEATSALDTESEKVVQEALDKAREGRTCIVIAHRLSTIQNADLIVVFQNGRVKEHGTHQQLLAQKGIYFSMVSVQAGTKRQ

B1: 小鼠抗人MDR-1单克隆抗体 (杂交瘤细胞株6C6, CGMCC No. 6917 产生) (antibody, part only; not given: light chain variable region, constant regions, V domains shown, part only)
VH: LGISTMNFGLSWVFLVLVLKGVQCEVKLVESGGGLVKPGGSLKLSCAASGFTFSNYAMSWVRQTPEKRLEWVASISSGGGGSTYYPDSVKGRFTISRDNARNILYLLMSSLRSEDTAMYYVCVMSLSEQSSCINLP
ELISA滴度 (dilution (1:x)): > 10000

Reference: patent CN106754740A
